Measured values from patent publication US20090131309A1, “ICA512 COUPLES INSULIN SECRETION AND GENE EXPRESSION IN BETA-CELLS” (Technische Universität Dresden Medizinizche Fakultät Carl …, priority 2004, published 2009).
Each block holds one molecule with its values, some of them ahead of it. Residues, ends and D or L forms follow the SMILES beside them. *: point of attachment. Cbz = O=C(OCc1ccccc1)*

Assays:
[1] = target: T1, μ-calpain (Homo sapiens, UniProt P07384); format: biochemical; details: bacterially expressed ICA512 (601-979), 50 μM Ca2+, 30 μM inhibitor
T1 sequence (P07384 1-714): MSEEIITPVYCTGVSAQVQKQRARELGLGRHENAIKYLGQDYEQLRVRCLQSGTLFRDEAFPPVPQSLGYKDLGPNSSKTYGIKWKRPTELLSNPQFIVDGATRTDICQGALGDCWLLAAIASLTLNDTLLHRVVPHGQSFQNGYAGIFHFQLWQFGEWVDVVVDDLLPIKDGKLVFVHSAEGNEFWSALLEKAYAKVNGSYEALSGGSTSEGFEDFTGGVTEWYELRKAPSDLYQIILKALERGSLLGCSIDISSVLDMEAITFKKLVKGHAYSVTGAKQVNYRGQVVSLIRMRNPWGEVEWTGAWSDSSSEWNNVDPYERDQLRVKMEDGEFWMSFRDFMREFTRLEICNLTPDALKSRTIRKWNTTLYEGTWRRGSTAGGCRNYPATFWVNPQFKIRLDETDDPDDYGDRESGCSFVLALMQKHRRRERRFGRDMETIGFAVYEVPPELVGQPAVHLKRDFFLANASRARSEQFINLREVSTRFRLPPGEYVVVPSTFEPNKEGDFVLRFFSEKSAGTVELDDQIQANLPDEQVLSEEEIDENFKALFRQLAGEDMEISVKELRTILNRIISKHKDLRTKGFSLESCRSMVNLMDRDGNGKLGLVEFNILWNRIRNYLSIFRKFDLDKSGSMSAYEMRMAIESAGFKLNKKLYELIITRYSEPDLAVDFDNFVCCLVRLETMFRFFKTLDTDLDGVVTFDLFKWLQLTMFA
T1 sequence (P04632 1-268 partner): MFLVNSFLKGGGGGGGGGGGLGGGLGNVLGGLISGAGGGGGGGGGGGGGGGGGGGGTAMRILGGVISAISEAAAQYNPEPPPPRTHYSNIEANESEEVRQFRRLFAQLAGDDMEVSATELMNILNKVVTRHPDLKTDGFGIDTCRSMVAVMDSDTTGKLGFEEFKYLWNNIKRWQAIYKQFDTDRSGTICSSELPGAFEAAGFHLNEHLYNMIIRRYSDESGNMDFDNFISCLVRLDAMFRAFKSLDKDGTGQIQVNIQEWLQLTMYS
Protocol: In-vitro μ-calpain cleavage. 3 μg bacterially expressed His-ICA512 cytoplasmic domain (residues 601-979) (Ort et al., 2001) were incubated in 20 μl buffer (20 mM Tris-HCl pH 7.5, 50 μM CaCl2, 1 mM L-cysteine) at room temperature with or without 150 ng μ-calpain (Calbiochem) and 30 μM calpeptin or MG-132 for 1, 5, 15 or 45 minutes. The reactions were stopped by addition of an equal volume of 2×SDS sample buffer. Following SDS-PAGE, proteins were stained with Coomassie Blue (Bio-Rad).

[2] = target: ICA512-TMF (endogenous in INS-1 cells) (rat) (UniProt Q63259); test: cell-based or functional assay
[3] = system: T2, 6X histidine-tagged human ICA512 cytoplasmic domain (residues 601-979)
T2 sequence: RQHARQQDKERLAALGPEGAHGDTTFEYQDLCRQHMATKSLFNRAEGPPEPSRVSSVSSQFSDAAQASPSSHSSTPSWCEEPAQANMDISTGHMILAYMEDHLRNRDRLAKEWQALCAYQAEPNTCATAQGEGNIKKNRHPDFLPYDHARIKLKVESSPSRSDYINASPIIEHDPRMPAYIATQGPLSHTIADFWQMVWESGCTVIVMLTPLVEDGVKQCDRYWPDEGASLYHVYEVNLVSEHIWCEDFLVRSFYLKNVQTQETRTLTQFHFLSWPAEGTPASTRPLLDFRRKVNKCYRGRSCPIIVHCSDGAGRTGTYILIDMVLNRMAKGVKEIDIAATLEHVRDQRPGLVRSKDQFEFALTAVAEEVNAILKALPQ

[4] = target: T3, PIASy (Mus musculus, UniProt Q9JM05); test: GST pull-down assay with PIASy; format: binding; details: in-vitro transcribed and translated 35S-labeled partner, glutathione-sepharose beads
T3 construct: made in house; host or cells: in-vitro transcription-translation (T7 coupled system, Promega)
T3 sequence (Q9JM05 2-507): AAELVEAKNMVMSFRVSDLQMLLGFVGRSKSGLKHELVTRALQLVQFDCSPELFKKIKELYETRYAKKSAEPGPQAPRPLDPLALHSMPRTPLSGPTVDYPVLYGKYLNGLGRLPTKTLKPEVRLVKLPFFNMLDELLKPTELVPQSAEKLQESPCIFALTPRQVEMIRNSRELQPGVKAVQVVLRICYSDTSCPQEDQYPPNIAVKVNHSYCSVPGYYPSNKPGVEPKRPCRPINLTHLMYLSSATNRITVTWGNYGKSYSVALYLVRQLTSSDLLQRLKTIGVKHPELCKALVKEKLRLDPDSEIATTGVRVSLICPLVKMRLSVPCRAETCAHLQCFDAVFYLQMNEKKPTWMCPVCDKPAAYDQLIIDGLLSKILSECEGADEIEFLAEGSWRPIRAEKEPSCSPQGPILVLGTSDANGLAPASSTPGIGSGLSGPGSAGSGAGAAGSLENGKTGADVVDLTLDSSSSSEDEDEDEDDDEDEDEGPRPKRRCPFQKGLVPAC
Protocol: GST-Pull Down Assays. ICA512 (601-979) cDNA in pET28a (invitrogen) (29) was in vitro transcribed and translated using the T7/coupled transcription-translation system (Promega, Madison, Wis.) according to manufacture's instructions. PIAS1-GST and PIASy-GST (a kind gift of Rudolf Grosschedl) were expressed in bacteria as previously described (21, 30). Next, [^35S]-methionine-labeled ICA512 (601-979) was incubated overnight at 4° C. in GST binding buffer (120 mM NaCl, 50 mM Tris pH8, 0.25% Nonidet P-40, 1 mM DTT, 1 mM PMSF) with GST-fusion proteins or GST alone coupled to glutathione-sepharose beads (Amersham, Freiburg, Germany). Beads were washed five times with binding buffer, and then eluted with 10 mM reduced glutathione. The eluate was subjected to SDS-PAGE and analyzed by autoradiography.
Pull-down assays. GST-ICA512 (601-979), GST-ICA512 (700-979), and GST-ICA512 (800-979) were bacterially expressed as described^26. [^35S]-methionine-PIASy, -ICA512 (601-979), -p53 and -firefly luciferase were in-vitro transcribed and translated with the T7/coupled transcription-translation system (Promega) according to the manufacturer's instructions. [^35S]-PIASy was incubated with GST-ICA512 proteins or GST, while [^35S]-ICA512 (601-979), [^35S]-p53 and [^35S]-firefly luciferase were incubated with MBP-Ubc9. Proteins were collected with glutathione-(Amersham) or amylose-(New England Biolabs) sepharose beads as described^38. Proteins eluted from beads with glutathione or maltose were analyzed by SDS-PAGE and autoradiography with a phosphoimager BAS1800 II (Fuji).

[5] = system: STAT5; test: Firefly luciferase reporter assay for STAT activity (8GLE-CAS-FL) in INS-1 cells; format: cell-based, rat; details: co-transfected INS-1 cells, hGH stimulation
Protocol: Firefly luciferase assays. INS-1 cells were co-transfected with 8GLE-CAS-FL and one or two of the following plasmids: pEGFP, ICA512-CCF-GFP, ICA512-CCF(K/A^754)-GFP and PIASy-GFP. Two days after transfection, cells were incubated in low serum medium for 18 hrs, then stimulated with 20 nM hGH for 20 minutes, and finally left in resting buffer for 6 additional hours. Cells were harvested in 500 μl lysis reagent for luciferase assays (Promega) and 10 μl were used for measurement of luciferase activity in a Berthold luminometer. Each sample was performed in triplicate and the data represent the mean of at least 2 independent experiments.

Molecule: CC(C)C[C@@H](C=O)NC(=O)[C@H](CC(C)C)NC(=O)[C@H](CC(C)C)NC(=O)OCc1ccccc1 [MG-132] (Cbz-Leu-Leu-Leu-aldehyde)
Cleavage by μ-calpain [1]: inhibited

Molecule: µ-calpain (Calbiochem)
in-vitro cleavage of bacterially expressed ICA512 (601-979) by µ-calpain, Coomassie Blue staining [3]: Cleavage by µ-calpain was inhibited by calpeptin and MG-132, another inhibitor of cysteine proteases (FIG. 8)

B2: GST-ICA512 (601-979): GST fusion encompassing the entire ICA512 cytoplasmic domain (protein)
chain: T2 sequence
modifications: left off: a dimerising Fc or GST
notes: GST fusion encompassing the entire ICA512 cytoplasmic domain
binding to PIASy in pull-down assay [4]: bound

B4: ICA512-CCF(K/A^754)-GFP: ICA512-CCF-GFP construct in which Lys754 was replaced by alanine (protein)
chain: SQFSDAAQASPSSHSSTPSWCEEPAQANMDISTGHMILAYMEDHLRNRDRLAKEWQALCAYQAEPNTCATAQGEGNIKKNRHPDFLPYDHARIKLAVESSPSRSDYINASPIIEHDPRMPAYIATQGPLSHTIADFWQMVWESGCTVIVMLTPLVEDGVKQCDRYWPDEGASLYHVYEVNLVSEHIWCEDFLVRSFYLKNVQTQETRTLTQFHFLSWPAEGTPASTRPLLDFRRKVNKCYRGRSCPIIVHCSDGAGRTGTYILIDMVLNRMAKGVKEIDIAATLEHVRDQRPGLVRSKDQFEFALTAVAEEVNAILKALPQ
modifications: left off: large carriers
notes: ICA512-CCF-GFP construct in which Lys754 was replaced by alanine
STAT5 transcription activity (8GLE-CAS-FL luciferase) [5]: enhances its transcription activity less than ICA512-CCF-GFP

Second part, the molecule after the results:

stimulus-dependent degradation of ICA512-TMF after siRNA knockdown of µ-calpain in INS-1 cells [2]: 1.6 fold
Molecule: rat µ-calpain (endogenous in INS-1 cells) (from UniProt P97571 1-713)

binding to PIASy in pull-down assay [4]: bound
B1: GST-ICA512 (700-979): GST fusion which only contains the PTP domain (protein)
chain: EDHLRNRDRLAKEWQALCAYQAEPNTCATAQGEGNIKKNRHPDFLPYDHARIKLKVESSPSRSDYINASPIIEHDPRMPAYIATQGPLSHTIADFWQMVWESGCTVIVMLTPLVEDGVKQCDRYWPDEGASLYHVYEVNLVSEHIWCEDFLVRSFYLKNVQTQETRTLTQFHFLSWPAEGTPASTRPLLDFRRKVNKCYRGRSCPIIVHCSDGAGRTGTYILIDMVLNRMAKGVKEIDIAATLEHVRDQRPGLVRSKDQFEFALTAVAEEVNAILKALPQ
modifications: left off: a dimerising Fc or GST
notes: GST fusion which only contains the PTP domain

binding to PIASy in pull-down assay [4]: did not bind
B3: GST-ICA512 (800-979): GST fusion which lacks the first 100 residues of the PTP domain (protein)
chain: ESGCTVIVMLTPLVEDGVKQCDRYWPDEGASLYHVYEVNLVSEHIWCEDFLVRSFYLKNVQTQETRTLTQFHFLSWPAEGTPASTRPLLDFRRKVNKCYRGRSCPIIVHCSDGAGRTGTYILIDMVLNRMAKGVKEIDIAATLEHVRDQRPGLVRSKDQFEFALTAVAEEVNAILKALPQ
modifications: left off: a dimerising Fc or GST
notes: GST fusion which lacks the first 100 residues of the PTP domain
